# Data from the supplement of paper PMC10567573.
# B1: FCHO1 (parent)
# chain: FSDPSQSDPETKDFWLNMAALTEA
# Variants of: B1
# Assay: protein stability index of a GFP-peptide fusion (GPS, HEK-293T) (PSI 1-6); higher = more stable
# Details: c terminus: a fixed tail appended
# 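Further: lentivirally expressed fusions sorted by FACS into six bins by GFP to DsRed ratio, PSI derived from sequencing read proportions per bin multiplied by bin number.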
row,Variant,protein stability index
1,FSDPSQSDPETKDFHLNMAALTEA [W15H],4.73
2,FSDPSQSDPETKDFWMNMAALTEA [L16M],2.55
3,FSDPSQSDPETKDFWINMAALTEA [L16I],2.32
4,FSDPSQSDPETKDFWDNMAALTEA [L16D],5.04
5,FSDPSQSDPETKDFWKNMAALTEA [L16K],2.36
6,FSDPSQSDPETKDFWFNMAALTEA [L16F],2.41
7,FSDPSQSDPETKDFWQNMAALTEA [L16Q],3.59
8,FSDPSQSDPETKDFWYNMAALTEA [L16Y],2.73
9,FSDPSQSDPETKDFWNNMAALTEA [L16N],3.48
10,FSDPSQSDPETKDFWCNMAALTEA [L16C],2.1
11,FSDPSQSDPETKDFWWNMAALTEA [L16W],2.31
12,FSDPSQSDPETKDFWGNMAALTEA [L16G],2.41
13,FSDPSQSDPETKDFWPNMAALTEA [L16P],4.08
14,FSDPSQSDPETKDFWANMAALTEA [L16A],2.87
15,FSDPSQSDPETKDFWENMAALTEA [L16E],4.87
16,FSDPSQSDPETKDFWHNMAALTEA [L16H],2.3
17,FSDPSQSDPETKDFWTNMAALTEA [L16T],2.56
18,FSDPSQSDPETKDFWVNMAALTEA [L16V],2.22
19,FSDPSQSDPETKDFWSNMAALTEA [L16S],2.32
20,FSDPSQSDPETKDFWRNMAALTEA [L16R],2.21
21,FSDPSQSDPEWKDFWLNMAALTEA [T11W],1.74
22,FSDPSQSDPESKDFWLNMAALTEA [T11S],2.98
23,FSDPSQSDPENKDFWLNMAALTEA [T11N],3.12
24,FSDPSQSDPEIKDFWLNMAALTEA [T11I],2.7

row,Variant,protein stability index
1,FSDPSQSDPEAKDFWLNMAALTEA [T11A],3.11
2,FSDPSQSDPEKKDFWLNMAALTEA [T11K],2.49
3,FSDPSQSDPEQKDFWLNMAALTEA [T11Q],3.15
4,FSDPSQSDPEDKDFWLNMAALTEA [T11D],4.34
5,FSDPSQSDPEVKDFWLNMAALTEA [T11V],2.69
6,FSDPSQSDPEPKDFWLNMAALTEA [T11P],3.38
7,FSDPSQSDPEYKDFWLNMAALTEA [T11Y],2.06
8,FSDPSQSDPEEKDFWLNMAALTEA [T11E],4.2
9,FSDPSQSDPECKDFWLNMAALTEA [T11C],2.92
10,FSDPSQSDPEFKDFWLNMAALTEA [T11F],2.09
11,FSDPSQSDPEHKDFWLNMAALTEA [T11H],2.87
12,FSDPSQSDPELKDFWLNMAALTEA [T11L],2.13
13,FSDPSQSDPERKDFWLNMAALTEA [T11R],2.69
14,FSDPSQSDPEGKDFWLNMAALTEA [T11G],3.04
15,FSDPSQSDPEMKDFWLNMAALTEA [T11M],2.31
16,FSDPSQSDPETKEFWLNMAALTEA [D13E],3.62
17,FSDPSQSDPETKKFWLNMAALTEA [D13K],2.33
18,FSDPSQSDPETKAFWLNMAALTEA [D13A],2.09
19,FSDPSQSDPETKVFWLNMAALTEA [D13V],1.65
20,FSDPSQSDPETKMFWLNMAALTEA [D13M],1.43
21,FSDPSQSDPETKPFWLNMAALTEA [D13P],2.37
22,FSDPSQSDPETKWFWLNMAALTEA [D13W],1.65
23,FSDPSQSDPETKHFWLNMAALTEA [D13H],2.02
24,FSDPSQSDPETKNFWLNMAALTEA [D13N],1.27

row,Variant,protein stability index
1,FSDPSQSDPETKQFWLNMAALTEA [D13Q],2.08
2,FSDPSQSDPETKCFWLNMAALTEA [D13C],1.77
3,FSDPSQSDPETKFFWLNMAALTEA [D13F],1.88
4,FSDPSQSDPETKLFWLNMAALTEA [D13L],1.82
5,FSDPSQSDPETKGFWLNMAALTEA [D13G],2.96
6,FSDPSQSDPETKIFWLNMAALTEA [D13I],1.75
7,FSDPSQSDPETKYFWLNMAALTEA [D13Y],2.25
8,FSDPSQSDPETKSFWLNMAALTEA [D13S],1.47
9,FSDPSQSDPETKTFWLNMAALTEA [D13T],2.37
10,FSDPSQSDPETKRFWLNMAALTEA [D13R],1.97
11,FSDPSQSDPETKDFWLNAAALTEA [M18A],3.02
12,FSDPSQSDPETKDFWLNPAALTEA [M18P],3.53
13,FSDPSQSDPETKDFWLNNAALTEA [M18N],3.55
14,FSDPSQSDPETKDFWLNCAALTEA [M18C],2.78
15,FSDPSQSDPETKDFWLNHAALTEA [M18H],3.22
16,FSDPSQSDPETKDFWLNWAALTEA [M18W],3.18
17,FSDPSQSDPETKDFWLNFAALTEA [M18F],2.78
18,FSDPSQSDPETKDFWLNEAALTEA [M18E],3.98
19,FSDPSQSDPETKDFWLNRAALTEA [M18R],3.11
20,FSDPSQSDPETKDFWLNIAALTEA [M18I],2.37
21,FSDPSQSDPETKDFWLNQAALTEA [M18Q],3.77
22,FSDPSQSDPETKDFWLNYAALTEA [M18Y],3.59
23,FSDPSQSDPETKDFWLNKAALTEA [M18K],2.91
24,FSDPSQSDPETKDFWLNGAALTEA [M18G],3.27

row,Variant,protein stability index
1,FSDPSQSDPETKDFWLNLAALTEA [M18L],2.57
2,FSDPSQSDPETKDFWLNTAALTEA [M18T],2.62
3,FSDPSQSDPETKDFWLNSAALTEA [M18S],3.12
4,FSDPSQSDPETKDFWLNVAALTEA [M18V],2.56
5,FSDPSQSDPETKDFWLNDAALTEA [M18D],4.25
6,FSDPSQSDIETKDFWLNMAALTEA [P9I],2.82
7,FSDPSQSDKETKDFWLNMAALTEA [P9K],3.05
8,FSDPSQSDSETKDFWLNMAALTEA [P9S],2.6
9,FSDPSQSDRETKDFWLNMAALTEA [P9R],2.8
10,FSDPSQSDGETKDFWLNMAALTEA [P9G],2.77
11,FSDPSQSDVETKDFWLNMAALTEA [P9V],3.54
12,FSDPSQSDMETKDFWLNMAALTEA [P9M],3.39
13,FSDPSQSDWETKDFWLNMAALTEA [P9W],2.4
14,FSDPSQSDQETKDFWLNMAALTEA [P9Q],3.27
15,FSDPSQSDLETKDFWLNMAALTEA [P9L],2.77
16,FSDPSQSDTETKDFWLNMAALTEA [P9T],3.19
17,FSDPSQSDNETKDFWLNMAALTEA [P9N],2.63
18,FSDPSQSDYETKDFWLNMAALTEA [P9Y],2.65
19,FSDPSQSDHETKDFWLNMAALTEA [P9H],2.73
20,FSDPSQSDPETKDFWLNMDALTEA [A19D],2.53
21,FSDPSQSDPETKDFWLNMEALTEA [A19E],2.74
22,FSDPSQSDPETKDFWLNMCALTEA [A19C],2.23
